Data on 3 proteins can be found in patent publication US20240295562.

One series addresses T1, QP514 (DQQRLIFAYPDDD).
T1 chain: DQQRLIFAYPDDD

The target of a further series is T2, IAKLDEESILKQK
T2 chain: IAKLDEESILKQK

A further series concerns the target T3, WKELDEESILKQK
T3 chain: WKELDEESILKQK

The next series deals with T4, RRLDEESILKQK
T4 chain: RRLDEESILKQK

The target of another series is T5, KKLDEESILKQK
T5 chain: KKLDEESILKQK

A further series deals with T6, QP47 peptide (FAAAYPDDD).
T6 chain: FAAAYPDDD

B1: AP37 (protein)
chain: MDLKGGESMVDWKLMQEIIEAPGVSGYEHLGIRDIVVDVLKEVADEVKVDKLGNVIAHFKGSSPRIMVAAHMDKIGVMVNHIDKDGYLHIVPIGGVLPETLVAQRIRFFTEKGERYGVVGVLPPHLRRGQEDKGSKIDWDQIVVDVGASSKEEAEEMGFRVGTVGEFAPNFTRLNEHRFATPYLDDRICLYAMIEAARQLGDHEADIYIVGSVQEEVGLRGARVASYAINPEVGIAMDVTFAKQPHDKGKIVPELGKGPVMDVGPNINPKLRAFADEVAKKYEIPLQVEPSPRPTGTDANMQINREGVATAVLSIPIRYMHSQVELADARDVDNTIKLAKALLEELKPMDFTPGHHHHHHHHHH
As to B1, the “cleavage of arginine in protein sequencing assay, AP37 (40 µM) alone” value in the series with QP514 (DQQRLIFAYPDDD) is on record as “AP37 shows better efficiency cleaving arginine than PfuTET when alone”. The Percent N-Terminal Residue Cut (HPLC assay), AP37 after conditioning, 1 µM in the series with IAKLDEESILKQK came to 74%; with WKELDEESILKQK, 97%; in the series with RRLDEESILKQK, 70%; with KKLDEESILKQK it was 61%. Also, the Percent N-Terminal Residue Cut (HPLC assay), AP37 after conditioning, 10 µM in the series with IAKLDEESILKQK was found to be 100%; in the series with WKELDEESILKQK it was 99%; with RRLDEESILKQK, 100%; with KKLDEESILKQK it was 100%. For the same protein, the Percent N-Terminal Residue Cut (HPLC assay), AP37 before conditioning, 1 µM in the series with IAKLDEESILKQK was found to be 13%; in the series with WKELDEESILKQK, 18%; in the series with RRLDEESILKQK it was 8%; in the series with KKLDEESILKQK, 11%. Besides, the Percent N-Terminal Residue Cut (HPLC assay), AP37 before conditioning, 10 µM was determined as 57% with IAKLDEESILKQK, 55% with WKELDEESILKQK, 26% in the series with RRLDEESILKQK and 71% with KKLDEESILKQK.

B2: AP30 (protein)
chain: MEVRNMVDYELLKKVVEAPGVSGYEFLGIRDVVIEEIKDYVDEVKVDKLGNVIAHKKGEGPKVMIAAHMDQIGLMVTHIEKNGFLRVAPIGGVDPKTLIAQRFKVWIDKGKFIYGVGASVPPHIQKPEDRKKAPDWDQIFIDIGAESKEEAEDMGVKIGTVITWDGRLERLGKHRFVSIAFDDRIAVYTILEVAKQLKDAKADVYFVATVQEEVGLRGARTSAFGIEPDYGFAIDVTIAADIPGTPEHKQVTHLGKGTAIKIMDRSVICHPTIVRWLEELAKKHEIPYQLEILLGGGTDAGAIHLTKAGVPTGALSVPARYIHSNTEVVDERDVDATVELMTKALENIHELKIGGSHHHHHHHHHHGGGSGGGSGGGSGLNDFFEAQKIEWHEGGGSGGGSGGGSGLNDFFEAQKIEWHE
B2: the “RSC (rapid sequential cleavage) population, protein sequencing assay with AP30 (5 µM)” value with QP47 peptide (FAAAYPDDD) is given as “The RSC population with AP30 was only ~25%”.

B3: Pyrococcus horikoshii TET II Aminopeptidase (hTET II) (protein)
chain: MEVRNMVDYELLKKVVEAPGVSGYEFLGIRDVVIEEIKDYVDEVKVDKLGNVIAHKKGEGPKVMIAAHMDQIGLMVTHIEKNGFLRVAPIGGVDPKTLIAQRFKVWIDKGKFIYGVGASVPPHIQKPEDRKKAPDWDQIFIDIGAESKEEAEDMGVKIGTVITWDGRLERLGKHRFVSIAFDDRIAVYTILEVAKQLKDAKADVYFVATVQEEVGLRGARTSAFGIEPDYGFAIDVTIAADIPGTPEHKQVTHLGKGTAIKIMDRSVICHPTIVRWLEELAKKHEIPYQLEILLGGGTDAGAIHLTKAGVPTGALSVPARYIHSNTEVVDERDVDATVELMTKALENIHELKI
On to B3, for which, in the series with QP47 peptide (FAAAYPDDD), the “RSC (rapid sequential cleavage) population, protein sequencing assay with hTETII (1 µM)” value was “RSC population is ~40%”.
